Test results published in patent publication US20100015130A1 (MIT, published 2010).

B1: Murine DISC1 peptide 3 (15-mer, mDISC1 amino acids 211 to 225) (peptide)
peptide: SFSFIQLSLGAAGER
notes: One of the overlapping 15-mer peptides that cover peptide 2; also called number 43; DISCtide2

Biological target: GSK3β as used in the surface plasmon resonance (SPR) binding assays (Homo sapiens (Human), UniProt P49841 1-420)
Test: SPR, stoichiometry inferred from the response
Protocol: Surface plasmon resonance (SPR) was used to determine whether peptide 2 directly binds to GSK3β. GSK3β SPR binding assays were carried out with peptide 1, peptide 2, the GSK3β inhibitor L803-MTS, and as a negative control, a peptide from the N-type calcium channel, CACNA1B (FIG. 6A). […] To identify the peptide 2 sequences that mediate this interaction with GSK3β, we designed overlapping 15-mer peptides that covered peptide 2 and tested their binding to GSK3β SPR (FIG. 16B).

Sequence of GSK3β as used in the surface plasmon resonance (SPR) binding assays (P49841 whole entry, form in doubt): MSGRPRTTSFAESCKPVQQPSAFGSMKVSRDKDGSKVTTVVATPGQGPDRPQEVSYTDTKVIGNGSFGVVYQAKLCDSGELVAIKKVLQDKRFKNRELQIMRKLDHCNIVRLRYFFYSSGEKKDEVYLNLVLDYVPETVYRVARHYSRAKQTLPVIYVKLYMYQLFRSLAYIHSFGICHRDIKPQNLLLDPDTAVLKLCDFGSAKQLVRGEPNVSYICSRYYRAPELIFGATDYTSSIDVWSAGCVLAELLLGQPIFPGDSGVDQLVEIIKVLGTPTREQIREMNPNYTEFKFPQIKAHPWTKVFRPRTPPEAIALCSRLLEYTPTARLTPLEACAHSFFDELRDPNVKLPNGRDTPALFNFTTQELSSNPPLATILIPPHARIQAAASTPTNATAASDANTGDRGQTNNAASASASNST

Row | Binder | peptide-protein ratio
1 | B1 | 2 peptide:protein
2 | PADIASLPGFQDTFTSSFSFIQLSLGAAGERGEAEGCLPSREAE (Synthetic peptide (Chi Scientific)) [Mouse DISC1 peptide 2 (195-238aa)] | 2 peptide:protein
